Substitutions are numbered along the chain they refer to. Numbers in names are those of the source.
What was measured:
[1] = molecular target: GAL4 activation domain fusion to HAB1^!-3 (pACT-HAB1^!-3; D204A in HAB1^!-2) (Arabidopsis thaliana (Mouse-ear cress)) (UniProt Q9CAJ0); assay: Y2H, mandipropamid (FIG. 5)
[2] = molecular target: GAL4 activation domain fusion to HAB1 (pACT-HAB1), wild type (Arabidopsis thaliana (Mouse-ear cress)) (UniProt Q9CAJ0); assay: Y2H, mandipropamid (FIG. 6)
[3] = molecular target: GAL4 activation domain fusion to HAB1^V393R (Arabidopsis thaliana (Mouse-ear cress)) (UniProt Q9CAJ0); assay: Y2H, ABA, beta-gal staining (FIG. 1)
[4] = molecular target: T1, 6x-His-PYR1 (recombinant wild type, E. coli) (Arabidopsis, UniProt O49686 1-191); assay: pull-down on His-tag resin, SDS-PAGE (FIG. 8)
T1 construct: Previously constructed (Park et al., 2009); also called 6×-His-PYR1; wild type PYR1; not shown: 6x-His tag
T1 sequence: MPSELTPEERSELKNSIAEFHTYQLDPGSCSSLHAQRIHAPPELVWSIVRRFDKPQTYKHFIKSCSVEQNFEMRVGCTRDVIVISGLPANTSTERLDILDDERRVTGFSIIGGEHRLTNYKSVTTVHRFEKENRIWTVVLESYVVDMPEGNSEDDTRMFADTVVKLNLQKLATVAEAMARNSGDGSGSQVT

[5] = molecular target: T2, GAL4 activation domain fusion to HAB1^V393R (Arabidopsis thaliana (Mouse-ear cress), UniProt Q9CAJ0 4-511); assay: Y2H, mandipropamid (FIG. 3)
T2 construct: Mutant of the pACT-HAB1 template, which lacks the three N-terminal amino acids of HAB1; Denoted HAB1^!
T2 sequence: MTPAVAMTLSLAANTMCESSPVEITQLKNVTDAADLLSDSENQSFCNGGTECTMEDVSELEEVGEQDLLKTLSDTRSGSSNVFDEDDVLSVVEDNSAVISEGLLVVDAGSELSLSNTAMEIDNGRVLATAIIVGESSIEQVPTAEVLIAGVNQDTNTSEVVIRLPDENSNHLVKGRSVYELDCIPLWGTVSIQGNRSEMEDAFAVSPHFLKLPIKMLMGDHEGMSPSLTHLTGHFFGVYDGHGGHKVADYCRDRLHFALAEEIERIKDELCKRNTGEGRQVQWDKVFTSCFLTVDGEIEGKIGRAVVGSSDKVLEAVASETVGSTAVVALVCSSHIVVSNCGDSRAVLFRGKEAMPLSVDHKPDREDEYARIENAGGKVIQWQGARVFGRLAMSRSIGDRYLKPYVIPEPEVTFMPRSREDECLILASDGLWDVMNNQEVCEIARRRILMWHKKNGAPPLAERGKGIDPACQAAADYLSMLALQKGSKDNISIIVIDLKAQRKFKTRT

[6] = molecular target: T3, GAL4 activation domain fusion to HAB1^!-2 (pACT-HAB1^!-2; HAB1^V393R/R505A) (Arabidopsis thaliana (Mouse-ear cress), UniProt Q9CAJ0 4-511); assay: Y2H, mandipropamid (FIG. 3)
T3 construct: R505A introduced into the pACT clone carrying V393R; the pACT-HAB1 template lacks the three N-terminal amino acids of HAB1; also called HAB^!-2
T3 sequence: T2 sequence with R502A

**Q.** What does the source list for “GAL4 DNA binding domain fusion to PYR1*^-MANDI (PYR1^Y58H;K59R;V81I;F108A;S122G;M158I;F159V;A160V;T162D) (from UniProt P04386 1-147) (receptor)”?
**A.** fold less sensitive to mandipropamid relative to HAB1^!-2 [1]: 10 fold; fold less sensitivity to mandipropamid than the orthogonal interaction [2]: 10 fold

**Q.** “GAL4 DNA binding domain fusion to PYR1^T162D (from UniProt P04386 1-147) (receptor)” was tested. Which fold less sensitive to ABA than wild type pBD-PYR1/pACT-HAB1 control cells [3] did it give?
**A.** Its fold less sensitive to ABA than wild type pBD-PYR1/pACT-HAB1 control cells is 4 fold.

B1: GST-HAB1* (recombinant, E. coli) (enzyme)
chain: T2 sequence with R196A, D201A, S319D, R502A
notes: Cloned into pGEX-4T-1; not shown: glutathione S-transferase (GST) of pGEX-4T-1
**Q.** Does B1 bind [4]?
**A.** Result: no binding

B2: GAL4 DNA binding domain fusion to PYR1^!-MANDI (PYR1^Y58H;K59R;V81I;F108A;S122G;F159L;T162D) (receptor, not shown: small tags and cut ends)
chain: T1 sequence with Y58H, K59R, V81I, F108A, S122G, F159L, T162D
notes: Septuple mutant; also called pBD-PYR1^!-MANDI
**Q.** B2 was tested. Which “fold less sensitive to mandipropamid than the PYR1^MANDI/HAB1 interaction” value [5] did it give?
**A.** The value was ~100 fold.

**Q.** What about the “fold less sensitive to mandipropamid than the PYR1^MANDI/HAB1 interaction” value [6] of the same molecule?
**A.** Its value is ~100 fold.

Source: patent publication US20190389914A1 (University of California, published 2019)
